Test results: the supplement of paper PMC9170038

Test system: MS2 coat protein
Test: apparent KD of MS2 coat protein; designed switch direction (-1 OFF switch, 1 ON switch): -1; higher = weaker reporter binding
Summary of the method: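 SNAP-549-labelled MS2 coat protein was titrated, doubling from 0.7 or 1.5 nM to 3 µM, over designed RNA switches transcribed on Illumina chips by stalled E. coli RNA polymerase. Runs were done without input, with 200 uM small-molecule ligand, or with an oligonucleotide input. Apparent KD is the per-design median over clusters of curve-fitted normalised fluorescence.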

[1] = input ligand: microRNA oligo, concentration not stated
[2] = Eterna round: R95, input ligand: microRNA oligo, concentration not stated
[3] = Eterna round: R95, input ligand: FMN 200 uM
[4] = Eterna round: R95, input ligand: none

| Sequence | apparent KD of MS2 coat protein (input ligand: FMN 200 uM) [nM] | apparent KD of MS2 coat protein (input ligand: none) [nM] | apparent KD of MS2 coat protein [1] [nM] | apparent KD of MS2 coat protein [2] [nM] | apparent KD of MS2 coat protein [3] [nM] | apparent KD of MS2 coat protein [4] [nM] |
| --- | --- | --- | --- | --- | --- | --- |
| GCGUACUGAGGAUAUACAUGAGGAUCACCCAUGUGAAGAAGAAAGUAGUGAUGGUUGGGUAGAAGGCAGUAUGC [JR_Ex3_Sub064] (Eterna round: R97, puzzle: Exclusion 3) | 103 | 98.5 |  |  |  |  |
| GCGUUCUGAGGAUAUACAUGAGGAUCACCCAUGUUGAGAAGAAAGUAUAAAAGAUUGUGUAGAAGGCAGAGUGC [JR_Ex3_Sub070] (Eterna round: R97, puzzle: Exclusion 3) | 112 | 38.4 |  |  |  |  |
| GCUCUCUCUCUGUCUCUCUACAUGAGGAUCACCCAUGUGUCUCGCUCGCUCUCUCUCUCUCUUUCUCUCUCUCUCUU [Default title] (Eterna round: R97, puzzle: Sensor, turn-off variant 1) | 104 | 135 |  |  |  |  |
| GCUGCACAUGUAGGAUAUCUGCACGUGUAGUGCAGAGAAGGACAUGAGGAUCACCCAUGUAGAUCAGCAGCAAUUAAUUUAAUU [ENG1/6-A2] (Eterna round: R96, puzzle: Exclusion NG 1) | 150 | 242 | 273 |  |  |  |
| GCUGCGCGAGGAUAUGCGGUUCGGGCGGUGGCCGCUGGCGGACAUGAGGAUCACCCAUGUAGAAGGCGUGCGGG [Apr-15 SS2-61] (puzzle: Exclusion 2) |  |  |  | 14.9 |  |  |
| GCUGCGCGAGGAUAUGCGGUUUGUGCUUUGGCCCAUGGCGUACAUGAGGAUCACCCAUGUAGAAGGCGUGUGGG [Apr-15 SS2-52] (puzzle: Exclusion 2) |  |  |  | 12 |  |  |
| GCUGGAAAAGGAUAUACAUAACGUGCGUCAGCACGAGACCUACAUGAGGAUCACCCAUGUAGAAGGUUUCCAGC [EX2 #75] (Eterna round: R97, puzzle: Exclusion 2) | 22.8 | 16.8 |  |  |  |  |
| GCUGGACAAGGAUAUAUAUGACGUGCUUCGGCACGAAGAUCACAUGAGGAUCACCCAUGUAGAAGGUGUCCAGC [E2/8-C2] (Eterna round: R97, puzzle: Exclusion 2) | 594 | 91.8 |  |  |  |  |
| GCUGGUCAAGGAUAUACAAUCGUGCUUCGGCACGUAAGAUCACAUGAGGAUCACCCAUGUAGAAGGUGACCAGC [E2/1-C1] (Eterna round: R97, puzzle: Exclusion 2) | 507 | 37.2 |  |  |  |  |
| GCUGGUCAAGGAUAUGCAAUCGUGCUUCGGCACGUAAGGUCACAUGAGGAUCACCCAUGUAGAAGGUGACCAGC [E2/4-C1] (Eterna round: R97, puzzle: Exclusion 2) | 27.8 | 18.4 |  |  |  |  |
| GCUGGUCGAGGAUAUGCAAUCGUGCUUCGGCACGUAAGAUCACAUGAGGAUCACCCAUGUAGAAGGUGACCAGC [E2/3-B1] (Eterna round: R97, puzzle: Exclusion 2) | 31.2 | 17.8 |  |  |  |  |
| GCUGGUGUGCAGGAUAUUUAAUUGCAAAUAAAUAAAGAAGGGCAUACAUGAGGAUCACCCAUGUCGUCGUUGCG [Eternabot (L1) Solution 98] (Eterna round: R97, puzzle: Exclusion 6) | 39.2 | 32.7 |  |  |  |  |
| GCUUCGGCAGGAUAUACAAGCUUCGGCUGAAAAGUUGAAGUACAUGAGGAUCACCCAUGUAGAAGGGUUGAAGU [-25.7, -24.2 kcal, A 32% 3 bis, 3 bis] (Eterna round: R97, puzzle: Exclusion 2) | 45.6 | 60.1 |  |  |  |  |
| GCUUGGCGAGGAUAUACAUGAGGAUCACCCAUGUGAGAGAAUAAAGUGAGGAAGAAAAGUAGAAGGCGCUGAGG [Mat - Exclusion 3 - Mod of Salish D58] (Eterna round: R96, puzzle: Exclusion 3) | 181 | 54.5 | 45 |  |  |  |
| GCUUGGCGAGGAUAUACAUGAGGAUCACCCAUGUGAGAGAAUAAAGUGAGGAAGAAAAGUAGAAGGCGCUGAGG [Mat - Exclusion 3 - Mod of Salish D58] (puzzle: Exclusion 3) |  |  |  | 40.4 | 199 | 40.4 |
| GCUUGUGUUGAGGAUAUGCGCCGGCUCGCUGGCGCAGAAGGCGGCACAUGAGGAUCACCCAUGUCAGUUCGCGG [salish99_ex6_r004_009] (Eterna round: R97, puzzle: Exclusion 6) | 321 | 93.8 |  |  |  |  |
| GGAAAGGUAGGAUAUACGAAGAAAAAGGGUAGAAUAAUAACACAUGAGGAUCACCCAUGUAGAAGGACCAAAGG [Mat - Exclusion 2 - Mod of my Tesla design - D6] (puzzle: Exclusion 2) |  |  |  | 23.1 | 40.5 | 19.3 |

| Sequence | apparent KD of MS2 coat protein (input ligand: FMN 200 uM) [nM] | apparent KD of MS2 coat protein (input ligand: none) [nM] | apparent KD of MS2 coat protein [1] [nM] | apparent KD of MS2 coat protein [2] [nM] | apparent KD of MS2 coat protein [3] [nM] | apparent KD of MS2 coat protein [4] [nM] |
| --- | --- | --- | --- | --- | --- | --- |
| GGAAGAGAGUUAGGAUAUAUAAGAAGAAUGUGGGUAGAAGGAACGAAACAUGAGGAUCACCCAUGUCCCAUGUUGAGGAGGAGG (Eterna round: R96, puzzle: Exclusion NG 1) | 1530 | 560 | 349 |  |  |  |
| GGAAUACAUGAGGAUCACCCAUGUAAGGAUAUGCUGAAUAUUACGGAAUAAACGUGCAGCAGAAGGUACAAAGG [Mat - Mod of my Eli Mod D47] (puzzle: Exclusion 1) |  |  |  | 83.4 | 105 | 125 |
| GGACAUAAAGUCAGGAUAUUAAGGCGAACAAGCGAUGAGAAGGGACAUGAGGAUCACCCAUGUGAUUCGCAUCA [Raerce] (Eterna round: R97, puzzle: Brourd's mod of Exclusion 4) | 32.7 | 24.1 |  |  |  |  |
| GGACCACAUGAGGAUCACCCAUGUCAGGAUAUGACGGCGUCGGCGAAAGCGGAGGCGGUCAGAAGGGACGGAAA [AK-MS2ROC-r4-exclusion1-9.0] (Eterna round: R97, puzzle: Exclusion 1) | 84.6 | 34 |  |  |  |  |
| GGAGCGAUUCUCUUAGUUAACAUGAGGAUCACCCAUGUGUACAAGCUCUUAUUUUGCUCGUCUUACCGAGAGUUGCC [Tienve] (puzzle: Sensor v3, turn-off variant 1) |  |  |  | 74.3 | 22.6 | 24.7 |
| GGAUAAAAGUCAGGAUAUACGUAUCGCUAGCGAGUAGAAGGGACACAUGAGGAUCACCCAUGUGAGUUCUCAAUAAGAAACACG [Prohibition 61 - Jieux - Exclusion NG 1] (Eterna round: R96, puzzle: Exclusion NG 1) | 45.5 | 19.5 | 16.3 |  |  |  |
| GGAUAUAACGUAGGAUAUCAGAGAAACAGACGAUGAGAAGGACGACAUGAGGAUCACCCAUGUGAUCUAUCAAUAUUAUACAUG [Prohibition 98 - Jieux - Exclusion NG 1] (Eterna round: R96, puzzle: Exclusion NG 1) | 874 | 712 | 434 |  |  |  |
| GGAUAUAAUGUGAGGAUAUCUGCGAUACCUAGUCGAGAGAAGGCACAUGAGGAUCACCCAUGUGAGGACCUCGU [Eternabot (L1) Solution 98] (Eterna round: R97, puzzle: Brourd's mod of Exclusion 4) | 29.6 | 19.4 |  |  |  |  |
| GGAUCGAAAGUGAGGAUAUACCUAUGGAAACAUAGGUAGAAGGCACAUGAGGAUCACCCAUGUUCCUACGGUCC [Mat - Exclusion 4 - Eli Mod - D10] (Eterna round: R97, puzzle: Brourd's mod of Exclusion 4) | 113 | 20 |  |  |  |  |
| GGAUCGAGUGUGAGGAUAUACCUAUGGAAACAUAGGUAGAAGGCACAUGAGGAUCACCCAUGUUCCUACGGUCC [Mat - Exclusion 4 - Eli Mod - D8] (Eterna round: R97, puzzle: Brourd's mod of Exclusion 4) | 658 | 75.5 |  |  |  |  |
| GGAUCGUAUGUCAGGAUAUACCACUGGAUACAGUGGUAGAAGGGACAUGAGGAUCACCCAUGUCCUAUCGAUCC [Fiskers BMX 4 - 51] (puzzle: Brourd's mod of Exclusion 4) |  |  |  | 12 |  |  |
| GGAUCGUAUGUCAGGAUAUACCACUGGAUACAGUGGUAGAAGGGACAUGAGGAUCACCCAUGUUCUAUCGAUCC [Fiskers BMX 4 - 53] (puzzle: Brourd's mod of Exclusion 4) |  |  |  | 12.5 |  |  |
| GGAUCGUAUGUGAGGAUAUACCACUGGAUACAGUGGUAGAAGGCACAUGAGGAUCACCCAUGUCCUAUCGAUCC [Fiskers BMX 4 - 54] (puzzle: Brourd's mod of Exclusion 4) |  |  |  | 132 |  |  |
| GGAUCUACUGAGGAUAUUAUAUCACCCGACUGAUAAGAAGGCAGUACAUGAGGAUCACCCAUGUGGGUAGCCAU [Polaris8] (Eterna round: R97, puzzle: Exclusion 6) | 64.3 | 34.8 |  |  |  |  |
| GGAUGUCUAAAGGAUAUGCUGGAUUAAUAUCUGGCAGAAGGUUGGACAUGAGGAUCACCCAUGUAAAUUCUGCC [Omei Ex6 A11] (Eterna round: R97, puzzle: Exclusion 6) | 24.6 | 17.3 |  |  |  |  |
| GGAUUGUCAGGAUAUCUUAUACUUCAUAAGUGAGGAUAAAUAGAGAAGGGACAUGAGGAUCACCCAUGUAAUAA [Exclusion 4 S1] (Eterna round: R97, puzzle: Exclusion 4) | 152 | 36.8 |  |  |  |  |
| GGCAAACAUGAGGAUCACCCAUGUCAGGAUAUUAGGCGAUCGUCGAAAGACGAUAGCCUGAGAAGGGACAUGCC [Eli x1 4.16] (Eterna round: R97, puzzle: Exclusion 1) | 238 | 103 |  |  |  |  |
